Source: publication PMC8802628, “Selective activation of PFKL suppresses the phagocytic oxidative burst” (Cell, 2021)
Residue numbers refer to the chain shown, from its start. Names and notes keep the numbering of the source. Values joined by “and” are separate entries in the source; they are usually repeats but may differ in a detail not shown here. Equal entries are not always repeated.

What was measured:
[1] = target: the molecule itself; experiment: cryo-EM structure; 9 uM purified PFKL with 1 mM ATP, 2 mM F6P and 50 uM NA-11 in 20 mM HEPES pH 7.5, 1 mM DTT, 500 uM ammonium sulfate, 5% glycerol, 100 uM EDTA; refinement focused on a single, masked tetramer
[2] = substrate: O=C(CO)[C@@H](O)[C@H](O)[C@H](O)COP(=O)(O)O; experiment: Recombinant PFKL activity assay (relief of ATP inhibition); format: biochemical, human; details: other: PFKL wild type, pH 7.5, 225 μM ATP, 25.0 °C
Description: (§1) Recombinant N-terminal His-tagged human PFKL (NP_002617), PFKM (NP_000280), and PFKP (NM_002627.4) were generated as described ([Webb et al., 2015], [2017]). Point mutants of PFK1 were generated using the QuikChange Lightning kit (Aligent).
(§2) His-tagged PFK1 was expressed and purified as described with slight modifications ([Webb et al., 2015], [2017]). Briefly, baculovirus was generated using the Bac-to-Bac Expression system (Invitrogen). PFK1 was expressed in 2-5 × 10^6 sf9 cells at a multiplicity of infection of two for 48 h. […] Protein was quantified using a Bradford Protein Assay kit (ThermoFisher Scientific), and aliquotes frozen in liquid nitrogen for storage at −80°C.
(§3) PFK1 activity was determined using the rate of FBP production via an auxiliary enzyme assay adapted to a 96-well format ([Brüser et al., 2012]; [Webb et al., 2015]). […] For assays containing FBP, the rate of ADP production was determined using the auxiliary enzymes pyruvate kinase (PK) and lactate dehydrogenase (LDH) (MilliporeSigma) in a buffer containing 250 μM phosphoenolpyruvic acid, […] NADH, 50 mM HEPES pH 7.5, 100 mM KCl, 1 mM DTT, and effector concentrations as described in the text. […] Absorbance at 340 nm was measured using a Varioskan LUX Multimode microplate reader (ThermoFisher). […]

[3] = substrate: O=C(CO)[C@@H](O)[C@H](O)[C@H](O)COP(=O)(O)O; experiment: Recombinant PFKL−pocket activity assay; format: biochemical, human; details: other: PFKL−pocket, pH 7.5, 225 μM ATP, 25.0 °C
Description: as §1, §2, §3

[4] = substrate: O=C(CO)[C@@H](O)[C@H](O)[C@H](O)COP(=O)(O)O; experiment: Recombinant PFKL−hook activity assay; format: biochemical, human; details: other: PFKL−hook, pH 7.5, 225 μM ATP, 25.0 °C
Description: as §1, §2, §3

B1: phosphofructokinase-1 liver type (PFKL), human, recombinant N-terminal His-tagged (enzyme)
chain: MAAVDLEKLRASGAGKAIGVLTSGGDAQGMNAAVRAVTRMGIYVGAKVFLIYEGYEGLVEGGENIKQANWLSVSNIIQLGGTIIGSARCKAFTTREGRRAAAYNLVQHGITNLCVIGGDGSLTGANIFRSEWGSLLEELVAEGKISETTARTYSHLNIAGLVGSIDNDFCGTDMTIGTDSALHRIMEVIDAITTTAQSHQRTFVLEVMGRHCGYLALVSALASGADWLFIPEAPPEDGWENFMCERLGETRSRGSRLNIIIIAEGAIDRNGKPISSSYVKDLVVQRLGFDTRVTVLGHVQRGGTPSAFDRILSSKMGMEAVMALLEATPDTPACVVTLSGNQSVRLPLMECVQMTKEVQKAMDDKRFDEATQLRGGSFENNWNIYKLLAHQKPPKEKSNFSLAILNVGAPAAGMNAAVRSAVRTGISHGHTVYVVHDGFEGLAKGQVQEVGWHDVAGWLGRGGSMLGTKRTLPKGQLESIVENIRIYGIHALLVVGGFEAYEGVLQLVEARGRYEELCIVMCVIPATISNNVPGTDFSLGSDTAVNAAMESCDRIKQSASGTKRRVFIVETMGGYCGYLATVTGIAVGADAAYVFEDPFNIHDLKVNVEHMTEKMKTDIQRGLVLRNEKCHDYYTTEFLYNLYSSEGKGVFDCRTNVLGHLQQGGAPTPFDRNYGTKLGVKAMLWLSEKLREVYRKGRVFANAPDSACVIGLKKKAVAFSPVTELKKDTDFEHRMPREQWWLSLRLMLKMLAQYRISMAAYVSGELEHVTRRTLSMDKGF
notes: human phosphofructokinase-1 liver type (PFKL), NP_002617; Homotetramer; In cryo-EM it mostly formed stacked pairs of tetramers; The sample held ATP, F6P and the small molecule NA-11; also called PFK1 liver isoform; wild-type PFKL; source: Sf9 cells (baculovirus, Bac-to-Bac), purified (HisPur cobalt resin, desalting column)
stoichiometry N [1]: 4 and 8 | Km [2]: 1970 ± 240 µM

B2: PFKL(K315R) (PFKL−pocket) (Homo sapiens; K315R) (protein)
chain: B1 chain with K315R
notes: made in house; host or cells: Sf9 insect cells (baculovirus)
Km [3]: 2060 ± 120 µM

B3: PFKL(V545L, V582M) (PFKL−hook) (Homo sapiens; V545L/V582M) (protein)
chain: B1 chain with V545L, V582M
notes: as for B2
Km [4]: 1200 ± 90 µM
